Test results: patent publication US11306156

Tests used:
[1] = biological target: tissue factor (TF) antigen (UniProt P13726); assay: SPR (ProteOn), Fab captured on anti-penta-His, TF as analyte, 1:1 fit
[2] = biological target: tissue factor (TF) (human) (UniProt P13726); assay: SPR (ProteOn), Fab captured on anti-penta His, TF analyte, 1:1 fit
Chain of tissue factor (TF) (human) (P13726 33-251 limits assumed): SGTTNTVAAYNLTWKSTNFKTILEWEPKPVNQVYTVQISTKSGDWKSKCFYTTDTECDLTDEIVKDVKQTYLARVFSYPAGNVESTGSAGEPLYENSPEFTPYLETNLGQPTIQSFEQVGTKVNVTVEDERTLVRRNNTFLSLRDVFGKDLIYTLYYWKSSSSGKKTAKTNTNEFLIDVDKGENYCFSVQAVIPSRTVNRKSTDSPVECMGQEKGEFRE

Chain of tissue factor (TF) antigen (P13726 33-251 limits assumed): as above

Row | Change in KD with respect to wild type (-(log(KD design) - log(KD wt))) [1] | Kd [1] | Kd [2] | change in KD vs wild type, -(log(KD design)-log(KD wt)) [2] | Substance
1 | -0.22 | 0.25 nM |  |  | D3H44 Fab heterodimer, H L143K_D146G / L Q124E_V133D
2 |  |  | 0.14 nM | 0.04 | H1L1 Fab heterodimer of LCCA set 9073 (D3H44 Fab; H: F174V; L: S131T_S176F_T178Y)
3 |  |  | 0.12 nM | 0.1 | H1L1 Fab heterodimer of LCCA set 9100 (D3H44 Fab; H: L124A_Q179K; L: Q124E_V133W_T180E)
4 | 0.1 | 0.12 nM |  |  | D3H44 Fab heterodimer, H L124A_Q179K / L Q124E_V133W_T180E
5 |  |  | 0.28 nM | -0.25 | H1L1 Fab heterodimer of LCCA set 9743 (D3H44 Fab; H: L143R; L: Q124E_V133E_S176L)
6 |  |  | 0.24 nM | -0.19 | H1L1 Fab heterodimer of LCCA set 9259 (D3H44 Fab; H: L124E_L143E_K145M; L: Q124K_V133G_S176R_T178K)
7 | 0.13 | 0.12 nM |  |  | D3H44 Fab heterodimer, H Q179K / L Q124E_S131T_T178F_T180E
8 | 0.1 | 0.13 nM |  |  | D3H44 Fab heterodimer, H Q179K / L Q124E_T178E_T180E
9 | -0.27 | 0.29 nM |  |  | D3H44 Fab heterodimer, H Q179K / L Q124E_Q160E_T178E
10 |  |  | 0.15 nM | 0.01 | H1L1 Fab heterodimer of LCCA set 9914 (D3H44 Fab; H: S188L_V190F; L: WT)
11 |  |  | 0.15 nM | 0.02 | H1L1 Fab heterodimer of LCCA set 9102 (D3H44 Fab; H: L124A_S186K; L: Q124E_V133W_T180E)
12 |  |  | 0.21 nM | -0.12 | H1L1 Fab heterodimer of LCCA set 9704 (D3H44 Fab; H: L143E_K145T_S188L; L: Q124R)
13 |  |  | 0.18 nM |  | H1L1 Fab heterodimer of LCCA set 9044 (D3H44 Fab; H: P175C_C233S; L: S162C_C214S)
14 |  |  | 0.13 nM | 0.07 | H1L1 Fab heterodimer of LCCA set 9068 (D3H44 Fab; H: F174G; L: S131T_S176F_T178F)
15 | -0.25 | 0.28 nM |  |  | D3H44 Fab heterodimer, H L143K / L Q124E_V133D_S176L
16 |  |  | 0.16 nM | 0 | H1L1 Fab heterodimer of LCCA set 9070 (D3H44 Fab; H: F174G; L: S131T_S176F_T178Y)
17 |  |  | 0.14 nM | 0.06 | H1L1 Fab heterodimer of LCCA set 9052 (D3H44 Fab; H: A139G_F174V_V190A; L: S131T_L135F_S176F_T178F)
18 | 0.02 | 0.15 nM |  |  | D3H44 Fab heterodimer, H S186K / L Q124E_T178E_T180E
19 |  |  | 0.1 nM | 0.2 | H1L1 Fab heterodimer of LCCA set 9917 (D3H44 Fab; H: S188L_V190Y; L: V133S)
20 |  |  | 0.14 nM |  | H1L1 Fab heterodimer of LCCA set 9041 (D3H44 Fab; H: A139C_C233S; L: F116C_C214S)
21 | 0.05 | 0.14 nM |  |  | D3H44 Fab heterodimer, H S186K / L S131E
22 | 0.05 | 0.14 nM |  |  | D3H44 Fab heterodimer, H Q179K / L S131E

Row | Change in KD with respect to wild type (-(log(KD design) - log(KD wt))) [1] | Kd [1] | Kd [2] | change in KD vs wild type, -(log(KD design)-log(KD wt)) [2] | Substance
23 | -0.09 | 0.2 nM |  |  | D3H44 Fab heterodimer, H L143R / L Q124E_V133E
24 | 0.04 | 0.14 nM |  |  | D3H44 Fab heterodimer, H Q179R / L Q124E_T178E
25 | 0.02 | 0.15 nM |  |  | D3H44 Fab heterodimer, H L124A_S186K / L Q124E_V133W_T180E
26 | -0.25 | 0.28 nM |  |  | D3H44 Fab heterodimer, H L143E_K145T / L Q124R
27 | 0.16 | 0.11 nM |  |  | D3H44 Fab heterodimer, H Q179R / L Q124E_Q160E_T178E
28 | 0.01 | 0.15 nM |  |  | D3H44 Fab heterodimer, H S186K / L Q124E_T178E
29 | 0.03 | 0.15 nM |  |  | D3H44 Fab heterodimer, H S186K / L Q124E_S176L_T180E
30 | -0.02 | 0.17 nM |  |  | D3H44 Fab heterodimer, H Q179R / L Q124E_S176L_T180E
31 | 0.14 | 0.11 nM |  |  | D3H44 Fab heterodimer, H Q179R / L Q124E_S131T_T178F_T180E
32 | -0.19 | 0.24 nM |  |  | D3H44 Fab heterodimer, H L143E_K145T_S188L / L Q124R_Q160K_T178R
33 | -0.23 | 0.27 nM |  |  | D3H44 Fab heterodimer, H L143A_Q179K / L Q124E_V133Y_T180E
34 | 0.15 | 0.11 nM |  |  | D3H44 Fab heterodimer, H L143E_K145T / L Q124R_T178R
35 | -0.21 | 0.25 nM |  |  | D3H44 Fab heterodimer, H L143R / L Q124E_V133E_Q160M
36 | -0.01 | 0.16 nM |  |  | D3H44 Fab heterodimer, H Q179R / L Q124E_T178E_T180E
37 | -0.01 | 0.16 nM |  |  | D3H44 Fab heterodimer, H Q179K / L Q124E_S131T_T178Y_T180E
38 | 0.28 | 0.08 nM |  |  | D3H44 Fab heterodimer, H Q179K / L Q124E_S176L_T180E
39 | -0.34 | 0.34 nM |  |  | D3H44 Fab heterodimer, H L143E_K145T_Q179E_S188L / L Q124R_T178R
40 | 0.09 | 0.13 nM |  |  | D3H44 Fab heterodimer, H S186K / L Q124E_S131T_T178Y_T180E
41 | 0.07 | 0.13 nM |  |  | D3H44 Fab heterodimer, H Q179R / L Q124E_S131T_T178Y_T180E
42 | 0.49 | 0.05 nM |  |  | D3H44 Fab heterodimer, H S186R / L Q124E_T178E_T180E
43 | -0.25 | 0.28 nM |  |  | D3H44 Fab heterodimer, H L143R / L Q124E_V133E_S176L
44 | -0.03 | 0.17 nM |  |  | D3H44 Fab heterodimer, H S186K / L Q124E_S131T_T178F_T180E
